This note sets out measurements from patent US20020037582A1 (published 2002).

The chains are these.
B1: original 2.2412 cDNA clone in pACT-2 (nucleotides 694-2664 of FIG. 1, polypeptide of 657 amino acids) (other, not shown: large carriers)
chain: ERLAYEFKGHSLLQAAREADVTRIKKHLSLEMVNFKHPQTHETALHCAAASPYPKRKQICELLLRKGANINEKTKEFLTPLHVASEKAHNDVVEVVVKHEAKVNALDNLGQTSLHRAAYCGHLQTCRLLLSYGCDPNIISLQGFTALQMGNENVQQLLQEGISLGNSEADRQLLEAAKAGDVETVKKLCTVQSVNCRDIEGRQSTPLHFAAGYNRVSVVEYLLQHGADVHAKDKGGLVPLHNACSYGHYEVAELLVKHGAVVNVADLWKFTPLHEAAAKGKYEICKLLLQHGADPTKKNRDGNTPLDLVKDGDTDIQDLLRGDAALLDAAKKGCLARVKKLSSPDNVNCRDTQGRHSTPLHLAAGYNNLEVAEYLLQHGADVNAQDKGGLIPLHNAASYGHVDVAALLIKYNASLNATDKWAFTPLHEAAQKGRTQLCALLLAHGADPTLKNQEGQTPLDLVSADDVSALLTAAMPPSALPSCYKPQVLNGVRSPGATADALSSGPSSPSSLSAASSLDNLSGSFSELSSVVSSSGTEGASSLEKKEVPGVDFSITQFVRNLGLEHLMDIFEREQITLDVLVEMGHKELKEIGINAYGHRHKLIKGVERLISGQQGLNPYLTLNTSGSGTILIDLSPDDKEFQSVEEEMQSTVREHR

Data set [1] has as its target Gal4 DNA-BD-Grb14 fusion (full length Grb14, GRB14/pAS2.1) (S. cerevisiae) (UniProt P04386). Put plainly: cell-based or functional assay.
Data set [2] has as its target Gal4 DNA-BD-Grb14 fusion (full length Grb14, GRB14/pAS2.1) (S. cerevisiae, UniProt P04386 1-147; Q14449 1-540). Put plainly: cell-based or functional assay.
Data set [3] concerns the target T1, Gal4 DNA-BD-Grb14 fusion (full length Grb14, GRB14/pAS2.1).
T1 chain: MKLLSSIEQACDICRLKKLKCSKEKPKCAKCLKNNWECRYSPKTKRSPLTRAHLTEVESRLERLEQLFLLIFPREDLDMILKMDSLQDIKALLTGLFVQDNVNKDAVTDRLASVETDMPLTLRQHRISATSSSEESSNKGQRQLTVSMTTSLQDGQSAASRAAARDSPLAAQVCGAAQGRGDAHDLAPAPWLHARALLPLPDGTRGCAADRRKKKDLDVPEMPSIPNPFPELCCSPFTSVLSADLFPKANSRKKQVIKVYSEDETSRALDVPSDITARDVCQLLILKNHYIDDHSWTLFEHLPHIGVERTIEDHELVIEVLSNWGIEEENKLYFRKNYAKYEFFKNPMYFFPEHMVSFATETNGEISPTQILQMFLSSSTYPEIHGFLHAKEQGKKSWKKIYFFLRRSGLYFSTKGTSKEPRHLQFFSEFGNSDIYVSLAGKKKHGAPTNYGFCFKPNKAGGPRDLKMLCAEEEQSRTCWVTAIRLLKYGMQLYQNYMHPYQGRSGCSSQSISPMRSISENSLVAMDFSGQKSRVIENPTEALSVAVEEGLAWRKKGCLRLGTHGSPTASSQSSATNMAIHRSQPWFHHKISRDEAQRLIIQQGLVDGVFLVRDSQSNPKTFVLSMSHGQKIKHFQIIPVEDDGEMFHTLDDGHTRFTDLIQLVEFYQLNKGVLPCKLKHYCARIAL

Data set [4] concerns the target B1. Kind of data set: yeast two hybrid, liquid- or filter-based beta-galactosidase assays. An excerpt: (§1) These fragments spanned the following regions: N-terminus (“N”. amino acids 1-110), the central region (“C”) encompassing the mig10 homology and the “between PH and SH2” (BPS) domain (amino acids 110-437) and the N-terminal and central regions (“N+C”, amino acids 1-437). These plasmids were individually transformed into the yeast strain Y190 (MATα, ura3-52, his3-200, ade2-101, lys2-801, trp1-901, leu2-3, 112, gal4Δ, gal80Δ, cyh^r2, LYS2::GAL1UAS-HIS3TATA-HIS3, URA3::GAL1UAS-GAL1TATA-lacZ) and expression of the appropriately sized Gal4 DNA-BD fusion proteins confirmed by Western blotting.

The target in data set [5] is B1. Kind of data set: yeast two hybrid in strain Y190, liquid- or filter-based beta-galactosidase assays.
From the text: as §1

As for “Somatostatin receptor cDNA clone in pACT2”, in data set [1], the Mean RLU (Liquid assay), beta-galactosidase activity came to 1450 RLU.
The same measure, in the same setting: in the case of “Proteosome cDNA clone in pACT2 (from UniProt P04386 768-881)” it was 388 RLU.
Turning to B1, in data set [2], the “Mean RLU (Liquid assay), beta-galactosidase activity” value (from here on “Mean RLU (Liquid assay)”) was determined as 5.18e+06 RLU.

B2: Htk partial cDNA clone in pACT2 (intracellular region and part of the extracellular domain) (receptor, human, UniProt P54760 436-987, looked up, not shown: large carriers)
chain: AVSDIRVTRSSPSSLSLAWAVPRAPSGAVLDYEVKYHEKGAEGPSSVRFLKTSENRAELRGLKRGASYLVQVRARSEAGYGPFGQEHHSQTQLDESEGWREQLALIAGTAVVGVVLVLVVIVVAVLCLRKQSNGREAEYSDKHGQYLIGHGTKVYIDPFTYEDPNEAVREFAKEIDVSYVKIEEVIGAGEFGEVCRGRLKAPGKKESCVAIKTLKGGYTERQRREFLSEASIMGQFEHPNIIRLEGVVTNSMPVMILTEFMENGALDSFLRLNDGQFTVIQLVGMLRGIASGMRYLAEMSYVHRDLAARNILVNSNLVCKVSDFGLSRFLEENSSDPTYTSSLGGKIPIRWTAPEAIAFRKFTSASDAWSYGIVMWEVMSFGERPYWDMSNQDVINAIEQDYRLPPPPDCPTSLHQLMLDCWQKDRNARPRFPQVVSALDKMIRNPASLKIVARENGGASHPLLDQRQPHYSAFGSVGEWLRAIKMGRYEESFAAAGFGSFELVSQISAEDLLRIGVTLAGHQKKILASVQHMKSQAKPGTPGGTGGPAPQY
As for B2, the “Mean RLU (Liquid assay)” value in data set [2] came to 186000 RLU.

B3: L-arginine:glycine amidinotransferase cDNA clone in pACT2 (protein)
chain: ASSRNSCAADDKATEPLPKDCPVSSYNEWDPLEEVIVGRAENACVPPFTIEVKANTYEKYWPFYQKQGGHYFPKDHLKKAVAEIEEMCNILKTEGVTVRRPDPIDWSLKYKTPDFESTGLYSAMPRDILIVVGNEIIEAPMAWRSRFFEYRAYRSIIKDYFHRGAKWTTAPKPTMADELYNQDYPIHSVEDRHKLAAQGKFVTTEFEPCFDAADFIRAGRDIFAQRSQVTNYLGIEWMRRHLAPDYRVHIISFKDPNPMHIDATFNIIGPGIVLSNPDRPCHQIDLFKKAGWTIITPPTPIIPDDHPLWMSSKWLSMNVLMLDEKRVMVDANEVPIQKMFEKLGITTIKVNIRNANSLGGGFHCWTCDVRRRGTLQSYLD
For B3, in data set [3], the “Colour intensity (Filter assay), beta-galactosidase” value is “+/-” and the Mean RLU (Liquid assay), beta-galactosidase activity came out at 861 RLU.

B4: Nedd4 partial cDNA clone in pACT2 (CaLB domain together with the first 22 amino acids of the first WW domain) (other, human, UniProt P46934-4 1-212, looked up, not shown: large carriers)
chain: MATCAVEVFGLLEDEENSRIVRVRVIAGIGLAKKDILGASDPYVRVTLYDPMNGVLTSVQTKTIKKSLNPKWNEEILFRVHPQQHRLLFEVFDENRLTRDDFLGQVDVPLYPLPTENPRLERPYTFKDFVLHPRSHKSRVKGYLRLKMTYLPKTSGSEDDNAEQAEELEPGWVVLDQPDAACHLQQQQEPSPLPPGWEERQDILGRTYYVNH
Take B4: the “Mean RLU (Liquid assay)” value in data set [2] turned out to be 2.86e+06 RLU.

B5: Gal4 DNA-BD fusion of the Grb14 central region (amino acids 110-437) in pAS2.1 (other, UniProt P04386 1-147, looked up)
chain: MKLLSSIEQACDICRLKKLKCSKEKPKCAKCLKNNWECRYSPKTKRSPLTRAHLTEVESRLERLEQLFLLIFPREDLDMILKMDSLQDIKALLTGLFVQDNVNKDAVTDRLASVETDMPLTLRQHRISATSSSEESSNKGQRQLTVSIKVYSEDETSRALDVPSDITARDVCQLLILKNHYIDDHSWTLFEHLPHIGVERTIEDHELVIEVLSNWGIEEENKLYFRKNYAKYEFFKNPMYFFPEHMVSFATETNGEISPTQILQMFLSSSTYPEIHGFLHAKEQGKKSWKKIYFFLRRSGLYFSTKGTSKEPRHLQFFSEFGNSDIYVSLAGKKKHGAPTNYGFCFKPNKAGGPRDLKMLCAEEEQSRTCWVTAIRLLKYGMQLYQNYMHPYQGRSGCSSQSISPMRSISENSLVAMDFSGQKSRVIENPTEALSVAVEEGLAWRKKGCLRLGTHGSPTASSQSSATNMAIHRSQ
Turning to B5, the binding result in data set [4] is given as “no binding”.

B6: Gal4 DNA-BD fusion of the Grb14 N-terminus (amino acids 1-110) in pAS2.1 (other, UniProt P04386 1-147, looked up)
chain: MKLLSSIEQACDICRLKKLKCSKEKPKCAKCLKNNWECRYSPKTKRSPLTRAHLTEVESRLERLEQLFLLIFPREDLDMILKMDSLQDIKALLTGLFVQDNVNKDAVTDRLASVETDMPLTLRQHRISATSSSEESSNKGQRQLTVSMTTSLQDGQSAASRAAARDSPLAAQVCGAAQGRGDAHDLAPAPWLHARALLPLPDGTRGCAADRRKKKDLDVPEMPSIPNPFPELCCSPFTSVLSADLFPKANSRKKQVI
For B6, the binding result in data set [5] was “binds”.
